{"source": "patent US9486502B2", "about": "“Methods of administering interferon gamma to absorb fluid from the subretinal space” (The United States of America, as represented by the …, priority 2008, dated 2016)", "molecules": {"B1": {"name": "IFNγ: pleiotropic cytokine produced by T- and NK-cells; obtained from Peprotech (protein, UniProt P01579 24-161, looked up)", "Interferon gamma": "QDPYVKEAENLKKYFNAGHSDVADNGTLFLGILKNWKEESDRKIMQSQIVSFYFKLFKNFKDDQSIQKSVETIKEDMNVKFFNSNKKKRDDFEKLTNYSVTDLNVQRKAIHELIQVMAELSPAAKTGKRKRSQMLFRG"}}, "format_in_all_cases": "cell-based, human", "key": {"hfRPE cells [1]": {"system": "hfRPE cells", "assay": "BrdU incorporation assay, hfRPE proliferation", "experimental": "BrdU incorporation was performed as described in Li, R. et al., 2007, Invest Ophthalmol Vis Sci, 48, 5722-5732, incorporated by reference in its entirety herein. IFNγ, TNFα, and IL-1β were obtained from Peprotech, Rocky Hill, N.J., and Universal Type I Interferon (cat: 11200-1) or human interferon beta la were from PBL biomedical laboratories (New Brunswick, N.J.). Cumulative effects were measured by adding VEGF165, EGF and bFGF (Peprotech), and PDGF-BB (R & D Systems) with IFNγ. Anti-human IFNγ R1 blocking antibody (R & D Systems, Minneapolis, Minn.), JAK inhibitor I, AG490, or JAK3 inhibitor II (EMD Biosciences, Gibbstown, N.J.) was added to the cells one hour prior to the addition of IFNγ. SFM was used as the negative control and SFM supplemented with 5% serum was used as positive control. After treatment for 48 hours, RPE cells were incubated with BrdU for 24 hours. The proliferation rate was evaluated using a Cell proliferation ELISA BrdU Kit (Roche, Ind.). Quadruplicate wells were used for each condition and the experiments were repeated at least two times using cell cultures from different donors. Cell viability was evaluated using a Live/Dead Viability/Cytotoxicity Kit (Invitrogen)."}, "hfRPE monolayer": {"system": "hfRPE monolayer", "assay": "fluorescence imaging of intracellular calcium", "details": "IFNγ 0.5, 5, 50 ng/ml both sides; n=4", "experimental": "Therefore, whether the CFTR pathway was involved in the response to IFNγ was examined using cAMP assays as described in Example 8. Primary cultures of hfRPE cells were incubated in control media, in the presence of IFNγ (0.5, 5, or 50 ng/ml), or in forskolin containing media (10 μM) for different amounts of time (5 minutes, 45 minutes, 12 hours, or 24 hours), and then total intracellular cAMP levels were measured using a cAMP ELISA System (Applied Biosystems, Foster City, Calif.). […] (n=3; P<0.05). […] In a separate set of experiments, fluorescence imaging was used to measure the intracellular concentration of calcium [Ca^2+]I in the presence of IFNγ (0.5, 5, 50 ng/ml) added to both sides of the hfRPE monolayer and no change in total cell [Ca^2+]I was observed (n=4, data not shown)."}, "hfRPE cells [2]": {"system": "hfRPE cells", "assay": "JC-1 staining of mitochondrial membrane potential", "experimental": "Mitochondrial membrane potential change (w) was assessed in live hfRPE cells using the lipophilic cationic probe 5,5′,6,6′-tetrachloro-1,1′3,3′-tetraethylbenzimidazol-carbocyanine iodide (JC-1) following the manufacturer's instructions and as described in Voloboueva, L. A., et al., Invest Ophthalmol Vis Sci, 2005, 46, 4302-4310, incorporated herein by reference in its entirety. Confluent monolayers of hfRPE were treated with different concentrations of IFNγ (0.5, 5, 50 ng/ml) for 24, 48, or 72 hours and then incubated with JC-1 solution for 30 minutes at 37° C. Fluorescence was evaluated with a Zeiss Axiovert 25 inverted microscope."}, "hfRPE monolayers": {"system": "hfRPE monolayers", "assay": "electrophysiology of hfRPE monolayers (TEP, RT, VA, VB, RA/RB)", "text": "Equivalent circuit analysis and electrophysiological methods have been previously described in Quinn, R. H., et al., Invest Ophthalmol Vis Sci, 1992, 33, 3513-3527; Joseph D. P., et al., J Physiol, 1991, 435, 439-463; and Maminishkis, A., et al., 2006, Ophthalmol Vis Sci, 47, 3612-3624each incorporated herein by reference in its entirety.\nBriefly, confluent monolayers of cultured hfRPE were mounted on a nylon mesh support and clamped into a modified Üssing chamber that allowed the rapid exchange of Ringer's solution (≈10 chamber volumes per minute) and the measurement of fast electrical changes in seconds. The electrical connections to the apical and basal chambers were made with Ringer-agar bridges in series with calomel electrodes. Intracellular potentials were recorded with conventional microelectrodes, back-filled with 150 mM KCl, with resistances of 80 to 200 Ma The apical and basolateral membrane potentials (VA and VB) are calculated as the voltage differences between the intracellular microelectrode and the apical and basal bath electrodes, respectively. The resistances of the apical and basolateral membranes were designated RA and RB, respectively, and the transepithelial potential (TEP=VB-VA) is the voltage difference between the apical and basal bath electrodes. Epithelial resistance parameters were obtained by passing 4-μA bipolar current pulses (i) using Ag—AgCl electrodes, one located in the apical chamber and the other located in the basal chamber. The total transepithelial resistance (Rt) is calculated from the current-induced changes in TEP (Rt=ΔTEP/i). The apparent membrane resistance ratio (RA/RB) is calculated from the ratio of change in VA to change in VB (RA/RB=ΔVA/ΔVB).\nThe control Ringer's solution for measurements of TEP and Rt in culture hfRPE contained 116 mM NaCl, 5 mM KCl, 26.2 mM NaHCO3, 1 mM NaH2PO4, 1 mM Mg Cl2, 1.8 mM CaCl2, 10 mM glucose, and 2 mM Taurine. The osmolarity of control Ringer's solution was 295 mOsm. The solutions were maintained at 35° C. and a pH of 7.4, and were bubbled with 10% O2, 5% CO2 and 85% N2. 8-Bromo-cAMP (or Dibutyryl cAMP), 8-Br-cGMP, and forskolin were obtained from Sigma-Aldrich."}, "[3]": {"details": "IFNγ 100 ng/ml apical and basal, FIG. 17A"}, "[4]": {"details": "IFNγ 500 ng/mL apical and basal, FIG. 22"}}, "data": [{"molecule": "B1", "values": [{"measurement": "effect on hfRPE proliferation (BrdU incorporation)", "setting": "hfRPE cells [1]; 0.5-80 ng/ml", "result": "strong inhibitory effect"}, {"measurement": "effect on hfRPE proliferation induced by bFGF, PDGF-BB, VEGF", "setting": "hfRPE cells [1]; IFNγ 5 ng/ml", "result": "significantly inhibited"}, {"measurement": "effect on hfRPE cell proliferation", "setting": "hfRPE cells [1]; IFNγ alone 5 ng/ml, 5% FBS or 0% FBS", "result": "significantly inhibited"}, {"measurement": "concentration as low as which hfRPE proliferation was inhibited", "setting": "hfRPE cells [1]; other experiments, data not shown", "result": 0.02, "unit": "ng/mL"}, {"measurement": "total cell [Ca^2+]I", "setting": "hfRPE monolayer", "result": "no change"}, {"measurement": "mitochondrial membrane potential (JC-1)", "setting": "hfRPE cells [2]; 24 or 48 hour time points", "result": "no significant differences"}, {"measurement": "mitochondrial membrane potential (JC-1 aggregate fluorescence)", "setting": "hfRPE cells [2]; IFNγ 0.5, 5, 50 ng/ml, 72 hours", "result": "dose-dependent decrease"}, {"measurement": "RT decrease", "setting": "hfRPE monolayers; [3]", "result": "15 Ω·cm^2"}, {"measurement": "TEP increase", "setting": "hfRPE monolayers; [3]", "result": 0.9, "unit": "mV"}, {"measurement": "depolarization of both VA and VB", "setting": "hfRPE monolayers; [4]", "result": "approximately 2.5 mV"}, {"measurement": "increase in RA/RB", "setting": "hfRPE monolayers; [4]", "result": 0.2}, {"measurement": "increase in TEP", "setting": "hfRPE monolayers; [4]", "result": 0.3, "unit": "mV"}, {"measurement": "ΔRT (decrease)", "setting": "hfRPE monolayers; IFNγ, mean of experiments", "result": "17±2 Ω·cm^2"}, {"measurement": "ΔTEP (increase)", "setting": "hfRPE monolayers; IFNγ, mean of experiments", "result": "0.5±0.1", "unit": "mV"}]}]}
